Results as given in publication PMC12409352.

Target: BrxU, untagged (GmrSD-family Type IV restriction enzyme from Escherichia fergusonii) (Escherichia fergusonii)

IPI* (mature, active form of phage T4 internal protein I, product of ip1) (natural protein)
in vitro digestion of glc-5mdC pUC19 DNA by untagged BrxU (1 mM ATP) after incubation with a titration of IPI*; excess of IPI* sufficient for robust inhibition: 30 fold excess
